Reference: US20020160975A1, “Conserved XIAP-interaction motif in caspase-9 and Smac/DIABLO for mediating apoptosis” (Thomas Jefferson University, priority 2001, published 2002)
Residue numbers refer to the chain shown, from its start. Names and notes keep the numbering of the source.

What was measured:
XIAP [1] = biological target: T1, XIAP (Homo sapiens, UniProt P98170); test: Cytochrome c-dependent caspase-3 activation in 293T S100 extracts containing XIAP (DEVD-AMC); format: biochemical; settings: 25, 100 and 500 μM peptide, XIAP 10 nM, cytochrome c and dATP
T1 construct: made in house; host or cells: in vitro translation (cell-free)
Experimental: The activity of caspase-3 in the S100 extracts was measured using the peptide substrate DEVD-AMC.

XIAP [2] = biological target: T1, XIAP; test: Far Western blot analysis with 35S-labeled XIAP; format: binding; settings: for binding of XIAP by Far Western: proteins on nitrocellulose membrane, denatured and renatured; for ability to interact with BIR3 (Far western, FIG. 12B): recombinant caspase-9 mutants
[3] = biological target: T2, X-linked inhibitor of apoptosis protein (XIAP), full length (UniProt P98170 1-497); test: Far western with 35S-labeled XIAP
T2 construct: Used as in vitro translated 35S-labeled full length XIAP (pull-down, Far western) or as purified XIAP (holoenzyme experiments); also called full length XIAP; 35S-labeled XIAP

[4] = biological target: T3, isolated BIR3 domain of XIAP (UniProt P98170 238-358, limits assumed); test: method not stated
T3 construct: domain: BIR3; In vitro translated 35S-labeled BIR3 in pull-downs; purified XIAP-BIR3 in enzyme assays; also called XIAP-BIR3; WT BIR3

[5] = biological target: T4, E314S mutant BIR3 domain of XIAP (Homo sapiens, UniProt P98170, E314S); test: Interaction of GST fusion proteins with 35S-labeled E314S mutant BIR3; format: binding; settings: compared with WT BIR3
T4 construct: made in house
Description: (§1) The C-terminal GST fusion proteins were expressed in bacteria and then immobilized onto glutathione-affinity resin. […] The caspase-9 deletion mutants used in these studies are represented by bar diagrams above the panel in FIG. 10.

[6] = biological target: T5, isolated BIR3 domain of XIAP, P98170
T5 chain: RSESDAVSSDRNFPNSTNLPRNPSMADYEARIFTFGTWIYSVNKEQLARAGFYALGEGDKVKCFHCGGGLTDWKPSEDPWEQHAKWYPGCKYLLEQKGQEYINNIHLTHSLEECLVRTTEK

full length XIAP = biological target: T6, full length XIAP (Homo sapiens, UniProt P98170); test: In vitro interaction assay of GST fusion proteins with 35S-labeled XIAP; format: binding; settings: for interaction with full length XIAP: C-terminal GST fusion proteins immobilized onto glutathione-affinity resin
T6 construct: full length XIAP or the isolated BIR3 domain of XIAP; made in house; host or cells: in vitro translation (cell-free)
Description: as §1

[7] = biological target: T7, isolated BIR3 domain of XIAP (Homo sapiens, UniProt P98170); test: In vitro interaction assay of GST fusion proteins with 35S-labeled BIR3; format: binding; settings: for interaction with isolated BIR3 domain of XIAP: C-terminal GST fusion proteins immobilized onto glutathione-affinity resin
T7 construct: full length XIAP or the isolated BIR3 domain of XIAP; made in house; host or cells: in vitro translation (cell-free)
Description: as §1

[8] = biological target: T2, X-linked inhibitor of apoptosis protein …; test: gel filtration on Superose 6 and immunoblot of fractions
[9] = biological target: T8, E314S mutant BIR3 domain of XIAP (UniProt P98170 238-358, limits assumed); test: GST pull-down of 35S-labeled E314S BIR3
T8 construct: domain: BIR3; 35S-labeled, in vitro translated

[10] = less than p12 and linker peptide

Molecule: ATPFQ (listed as Homo sapiens) [p12-N5]
- promoting caspase-3 activation in XIAP containing extracts (XIAP [1]): as effective in promoting caspase-3 activation as the Smac-N5 or N7 peptides

B1: SGVD176-179AVPF: caspase-3 with first four residues of p12 substituted with AVPF (protein)
chain 1: SGISLDNSYKMDYPEMGLCIIINNKNFHKSTGMTSRSGTDVDAANLRETFRNLKYEVRNKNDLTREEIVELMRDVSKEDHSKRSSFVCVLLSHGEEGIIFGTNGPVDLKKITNFFRGDRCRSLTGKPKLFIIQACRGTELDCGIETD
chain 2: AVPFDDMACHKIPVEADFLYAYSTAPGYYSWRNSKDGSWFIQSLCAMLKQYADKLEFMHILTRVNRKVATEFESFSFDATFHAKKQIPCIVSMLTKELYFYH
- binding of XIAP by Far Western (XIAP [2]): enhanced binding

B2: single mutant (D315A) caspase-9 (enzyme)
chain: MDEADRRLLRRCRLRLVEELQVDQLWDALLSRELFRPHMIEDIQRAGSGSRRDQARQLIIDLETRGSQALPLFISCLEDTGQDMLASFLRTNRQAAKLSKPTLENLTPVVLRPEIRKPEVLRPETPRPVDIGSGGFGDVGALESLRGNADLAYILSMEPCGHCLIINNVNFCRESGLRTRTGSNIDCEKLRRRFSSLHFMVEVKGDLTAKKMVLALLELAQQDHGALDCCVVVILSHGCQASHLQFPGAVYGTDGCPVSVEKIVNIFNGTSCPSLGGKPKLFFIQACGGEQKDHGFEVASTSPEDESPGSNPEPAATPFQEGLRTFDQLDAISSLPTPSDIFVSYSTFPGFVSWRDPKSGSWYVETLDDIFEQWAHSEDLQSLLLRVANAVSVKGIYKQMPGCFNFLRKKLFFKTS
notes: also called caspase-9 D315A
- binding of XIAP by Far Western (XIAP [2]): not able to bind
- binding result [3]: no binding

B3: double mutant (D315/D330A) caspase-9 (enzyme)
chain: B2 chain with D330A
notes: also called caspase-9 D315/330A
- binding of XIAP by Far Western (XIAP [2]): not able to bind
- binding result [3]: no binding

B4: SG: caspase-9 with first two p12 residues Ala-Thr mutated to Ser-Gly (protein, UniProt P55211 1-416, looked up, variant A316S T317G)
chain: B2 chain with A315D, A316S, T317G
- ability to interact with BIR3 (Far western, FIG. 12B) (XIAP [2]): lost significantly the ability to interact

B5: GG: caspase-9 with first two p12 residues Ala-Thr mutated to Gly-Gly (protein, UniProt P55211 1-416, looked up, variant A316G T317G)
chain: B2 chain with A315D, A316G, T317G
- ability to interact with BIR3 (Far western, FIG. 12B) (XIAP [2]): lost significantly the ability to interact

Molecule: AVPIAQK [Smac-N7 peptide (AVPIAQK)]
- Kd [4]: ~810 nM

Molecule: ATPFQEGLRTFDQLD [chemically synthesized caspase-9 linker peptide (ATPFQEGLRTFDQLD)]
- Kd [4]: 550 nM

B6: Smac-GST: mature Smac/DIABLO GST-fusion protein (protein)
chain: AVPIAQKSEPHSLSSEALMRRAVSLVTDSTSTFLSQTTYALIEAITEYTKAVYTLTSLYRQYTSLLGKMNSEEEDEVWQVIIGARAEMTSKHQEYLKLETTWMTAVGLSEMAAEAAYQTGADQASITARNHIQLVKLQVEEVHQLSRKAETKLAEAQIEELRQKTQEEGEERAESEQEAYLRED
modifications: left off: a dimerising Fc or GST
notes: mature Smac/DIABLO GST-fusion protein
- binding of XIAP by Far Western (XIAP [2]): able to bind
- binding to E314S mutant BIR3 [5]: abrogated binding

B7: caspase-9 linker deletion mutant (residues 316 to 330 of SEQ ID NO:1 deleted) (protein)
chain 1: MDEADRRLLRRCRLRLVEELQVDQLWDALLSRELFRPHMIEDIQRAGSGSRRDQARQLIIDLETRGSQALPLFISCLEDTGQDMLASFLRTNRQAAKLSKPTLENLTPVVLRPEIRKPEVLRPETPRPVDIGSGGFGDVGALESLRGNADLAYILSMEPCGHCLIINNVNFCRESGLRTRTGSNIDCEKLRRRFSSLHFMVEVKGDLTAKKMVLALLELAQQDHGALDCCVVVILSHGCQASHLQFPGAVYGTDGCPVSVEKIVNIFNGTSCPSLGGKPKLFFIQACGGEQKDHGFEVASTSPEDESPGSNPEPD
chain 2: AISSLPTPSDIFVSYSTFPGFVSWRDPKSGSWYVETLDDIFEQWAHSEDLQSLLLRVANAVSVKGIYKQMPGCFNFLRKKLFFKTS
- DEVD-AMC cleaving activity in S100 extracts with or without XIAP-BIR3 (20 nM) [6]: the deletion of the linker region did not inhibit enzymatic activity, even in the presence of XIAP-BIR3

B8: p10-GST: C-terminal GST fusion protein of caspase-9 p10 (residues 331-416 of SEQ ID NO:1) (protein)
chain: B7 chain 2
modifications: left off: a dimerising Fc or GST
- interaction with full length XIAP (full length XIAP): only weakly
- interaction with full length XIAP, fold less (full length XIAP; [10]): 50 to 100 fold
- interaction with isolated BIR3 domain of XIAP [7]: only weakly
- interaction with BIR3 domain, fold less [7, 10]: 50 to 100 fold
- binding of XIAP by Far Western (XIAP [2]): not able to bind

B9: fully processed wild-type (WT) caspase-9 (enzyme)
chain 1: B7 chain 1
chain 2: ATPFQEGLRTFDQLDAISSLPTPSDIFVSYSTFPGFVSWRDPKSGSWYVETLDDIFEQWAHSEDLQSLLLRVANAVSVKGIYKQMPGCFNFLRKKLFFKTS
notes: Procaspase-9 overexpressed in E. coli, completely processed into p35 and p12 (greater than 90% at Asp315, about 10% at Asp330 giving p10, minor at Glu306); also called wild type caspase-9; processed caspase-9; not shown: C-terminal 6-Histidine tag from pET-21c or pET-28a
- binding result [8]: binds

B10: Caspase-9-p12 C-terminal GST fusion protein (residues 316-416 of SEQ ID NO:1) (other, not shown: a dimerising Fc or GST)
chain: B9 chain 2
notes: also called p12-GST; GST-p12
- binding result [3]: binds
- binding result [9]: no binding

B11: p12: C-terminal GST fusion protein of Caspase-9-p12 (residues 316-416 of SEQ ID NO:1) (protein)
chain: B9 chain 2
modifications: left off: a dimerising Fc or GST
- interaction with full length XIAP (full length XIAP): able to interact
- interaction with isolated BIR3 domain of XIAP [7]: able to interact
- binding of XIAP by Far Western (XIAP [2]): able to bind
- binding to E314S mutant BIR3 [5]: abrogated binding
